Data published in the supplement of paper PMC11316812.
± gives the standard deviation of the averaged measurements.

How the values were obtained:
hTERT-HMEC = test: percentage of EdU-negative (G0-arrested) nuclei per well, 72 h; higher = more G0 arrest; conditions: reference: sequence is the full UniProt precursor, the tested protein was the secreted form or ectodomain
MCF7 = test: as above; conditions: reference: sequence is the full UniProt precursor, the tested protein was the secreted form or ectodomain
[1] = protein concentration 0.0225 µM
[2] = protein concentration 0.02425 µM
[3] = protein concentration 0.2425 µM
[4] = protein concentration 0.03125 µM
[5] = protein concentration 0.3125 µM
[6] = protein concentration 0.012475 µM
[7] = protein concentration 0.12475 µM
[8] = protein concentration 0.0224225 µM
[9] = protein concentration 0.0243425 µM
[10] = protein concentration 0.028825 µM
[11] = protein concentration 0.224225 µM
[12] = protein concentration 0.243425 µM
[13] = protein concentration 0.28825 µM
[14] = protein concentration 0.0354286 µM
[15] = protein concentration 0.354286 µM
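Note: secreted proteins added to cultured cells, EdU pulse at the end, nuclei found by Hoechst imaging, EdU status from nuclear versus surrounding ring intensity ratio, PBS as neutral control.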

MRGTPGDADGGGRAVYQSMCKPITGTINDLNQQVWTLQGQNLVAVPRSDSVTPVTVAVITCKYPEALEQGRGDPIYLGIQNPEMCLYCEKVGEQPTLQLKEQKIMDLYGQPEPVKPFLFYRAKTGRTSTLESVAFPDWFIASSKRDQPIILTSELGKSYNTAFELNIND [Q9NZH8]
percentage of EdU-negative (hTERT-HMEC; [1]): 4.85 ± 0.94%
percentage of EdU-negative (hTERT-HMEC; protein concentration 0.225 µM): 5.31 ± 0.92%
percentage of EdU-negative (MCF7; [1]): 22.9 ± 0.82%
percentage of EdU-negative (MCF7; protein concentration 0.225 µM): 23 ± 2.5%

MKTLAGLVLGLVIFDAAVTAPTLESINYDSETYDATLEDLDNLYNYENIPVDKVEIEIATVMPSGNRELLTPPPQPEKAQEEEEEEESTPRLIDGSSPQEPEFTGVLGPHTNEDFPTCLLCTCISTTVYCDDHELDAIPPLPKNTAYFYSRFNRIKKINKNDFASLSDLKRIDLTSNLISEIDEDAFRKLPQLRELVLRDNKIRQLPELPTTLTFIDISNNRLGRKGIKQEAFKDMYDLHHLYLTDNNLDHIPLPLPENLRALHLQNNNILEMHEDTFCNVKNLTYIRKALEDIRLDGNPINLSKTPQAYMCLPRLPVGSLV
percentage of EdU-negative (hTERT-HMEC; [2]): 4.4 ± 0.046%
percentage of EdU-negative (hTERT-HMEC; [3]): 6.32 ± 0.2%
percentage of EdU-negative (MCF7; [2]): 23.5 ± 1%
percentage of EdU-negative (MCF7; [3]): 26.2 ± 2.6%

MSSAAGFCASRPGLLFLGLLLLPLVVAFASAEAEEDGDLQCLCVKTTSQVRPRHITSLEVIKAGPHCPTAQLIATLKNGRKICLDLQAPLYKKIIKKLLES
percentage of EdU-negative (hTERT-HMEC; [4]): 5.71 ± 0.5%
percentage of EdU-negative (hTERT-HMEC; [5]): 5.011 ± 0.0019%
percentage of EdU-negative (MCF7; [4]): 23.9 ± 0.55%
percentage of EdU-negative (MCF7; [5]): 26.1 ± 3.4%

MRGANAWAPLCLLLAAATQLSRQQSPERPVFTCGGILTGESGFIGSEGFPGVYPPNSKCTWKITVPEGKVVVLNFRFIDLESDNLCRYDFVDVYNGHANGQRIGRFCGTFRPGALVSSGNKMMVQMISDANTAGNGFMAMFSAAEPNERGDQYCGGLLDRPSGSFKTPNWPDRDYPAGVTCVWHIVAPKNQLIELKFEKFDVERDNYCRYDYVAVFNGGEVNDARRIGKYCGDSPPAPIVSERNELLIQFLSDLSLTADGFIGHYIFRPKKLPTTTEQPVTTTFPVTTGLKPTVALCQQKCRRTGTLEGNYCSSDFVLAGTVITTITRDGSLHATVSIINIYKEGNLAIQQAGKNMSARLTVVCKQCPLLRRGLNYIIMGQVGEDGRGKIMPNSFIMMFKTKNQKLLDALKNKQC [Q9UKZ9]
percentage of EdU-negative (hTERT-HMEC; [6]): 4.6 ± 0.68%
percentage of EdU-negative (hTERT-HMEC; [7]): 7.45 ± 0.19%
percentage of EdU-negative (MCF7; [6]): 25.27 ± 0.085%
percentage of EdU-negative (MCF7; [7]): 25.1 ± 1.3%

MRACISLVLAVLCGLAWAGKIESCASRCNEKFNRDAACQCDRRCLWHGNCCEDYEHLCTEDHKESEPLPQLEEETEEALASNLYSAPTSCQGRCYEAFDKHHQCHCNARCQEFGNCCKDFESLCSDHEVSHSSDAITKEEIQSISEKIYRADTNKAQKEDIVLNSQNCISPSETRNQVDRCPKPLFTYVNEKLFSKPTYAAFINLLNNYQRATGHGEHFSAQELAEQDAFLREIMKTAVMKELYSFLHHQNRYGSEQEFVDDLKNMWFGLYSRGNEEGDSSGFEHVFSGEVKKGKVTGFHNWIRFYLEEKEGLVDYYSHIYDGPWDSYPDVLAMQFNWDGYYKEVGSAFIGSSPEFEFALYSLCFIARPGKVCQLSLGGYPLAVRTYTWDKSTYGNGKKYIATAYIVSST
percentage of EdU-negative (hTERT-HMEC; [8]): 5.37 ± 0.81%
percentage of EdU-negative (hTERT-HMEC; [9]): 4.65 ± 0.23%
percentage of EdU-negative (hTERT-HMEC; [10]): 5.03 ± 0.15%
percentage of EdU-negative (hTERT-HMEC; [11]): 5.94 ± 0.48%
percentage of EdU-negative (hTERT-HMEC; [12]): 8.43 ± 1.2%
percentage of EdU-negative (hTERT-HMEC; [13]): 6.74 ± 0.95%
percentage of EdU-negative (MCF7; [8]): 25.11 ± 0.21%
percentage of EdU-negative (MCF7; [9]): 25.2 ± 1.4%
percentage of EdU-negative (MCF7; [10]): 24.16 ± 0.045%
percentage of EdU-negative (MCF7; [11]): 28.6 ± 2.5%
percentage of EdU-negative (MCF7; [12]): 27.3 ± 0.39%
percentage of EdU-negative (MCF7; [13]): 27.382 ± 0.0011%

MDGLPGRALGAACLLLLAAGWLGPEAWGSPTPPPTPAAPPPPPPPGSPGGSQDTCTSCGGFRRPEELGRVDGDFLEAVKRHILSRLQMRGRPNITHAVPKAAMVTALRKLHAGKVREDGRVEIPHLDGHASPGADGQERVSEIISFAETDGLASSRVRLYFFISNEGNQNLFVVQASLWLYLKLLPYVLEKGSRRKVRVKVYFQEQGHGDRWNMVEKRVDLKRSGWHTFPLTEAIQALFERGERRLNLDVQCDSCQELAVVPVFVDPGEESHRPFVVVQARLGDSRHRIRKRGLECDGRTNLCCRQQFFIDFRLIGWNDWIIAPTGYYGNYCEGSCPAYLAGVPGSASSFHTAVVNQYRMRGLNPGTVNSCCIPTKLSTMSMLYFDDEYNIVKRDVPNMIVEECGCA
percentage of EdU-negative (hTERT-HMEC; [14]): 5.47 ± 0.17%
percentage of EdU-negative (hTERT-HMEC; [15]): 8.73 ± 0.18%
percentage of EdU-negative (MCF7; [14]): 24.4 ± 0.62%
percentage of EdU-negative (MCF7; [15]): 29.05 ± 0.099%
